We go through one protein from PMC8445988, “Characterization of two β-galactosidases LacZ and WspA1 from Nostoc flagelliforme with focus on the latter’s central active region” (Scientific Reports, 2021).

Series [1] concerns the molecule itself. Description: SEC; gel filtration on an FPLC system (AKTA purifier), 20 mM Tris-HCl, 150 mM NaCl, 10% glycerol, pH 7.5; five molecular weight markers (200, 150, 66, 29, 12.4 kDa); absorbance at 280 nm.
Substrate in series [2]: O=[N+]([O-])c1ccccc1O[C@@H]1O[C@H](CO)[C@H](O)[C@H](O)[C@H]1O
Nature of the series: purified protein.

B1: Nf-LacZ (β-galactosidase LacZ of Nostoc flagelliforme) (enzyme, UniProt A0A2K8T1B7 1-619, looked up)
chain: MKLLDIQKRKVESPSNRDNQRVSSFPEAGYPRPQLQRSHWLSLNGLWKFAFDNEGRCVQPGDIEGWTHHIQVPFAPESTKSGIGDTGFHPNCWYEREFETPEGDGRLLLHFGAVDYRARVWVNGQYMIEHEGGHTPFTLDITTVLNDTGITKVTVWAQDDPGDLAKPRGKQDWQLEPHSIWYPRTSGIWQTVWIERVGRTYIDSIRWSPDFERWEVGCYAAIAGDAPAGIQIKVKLSIGNTVLANDTYEVFNGEIGRRISLSDPGIDDYRNELLWSPEKPTLMDAHIELWHNNQLLDEAKSYTAMRTVGIQRDRFMLNGRPYYLRLVLDQGYWPDSLMTAPDDGALRRDVELTKAMGFNGVRKHQKIEDPRFLYWADKLGLLVWEEMPSAYRFTPKAVERTTREWAEVIRRDISHPCIVAWVTFNESWGVPNLVETAAHRNYVLAMYHLTKTLDPGRPVIANDGWESTDTDILAIHDYDTHPQRLGHRYGPEVKLSDLFDRKRPGGRILTLDNFPHQGQPVMLTEFGGIAYAPVDNPDADKAWGYERCSNISELEIKYATLLETINDIELFSGFCYTQFTDTFQEANGLLYADRTPKFPIEAIRAATLSGQGLCTPTSC
notes: β-galactosidase LacZ homolog of Nostoc flagelliforme, NCBI AUB41471, gene COO91_07519 (KEGG); 619 amino acid residues, calculated 70.8 kDa; The number of chains in the multimer is left open (at least a trimer or larger); also called COO91_07519; AUB41471
As to B1, the “stoichiometry N” value in series [1] was at least 3. For the same protein, in series [2], the Km worked out at 500 µM.

In general, stoichiometry N refers to a count of units in the complex or per binding partner. Usually Km stands for the concentration of substrate that gives half-maximal velocity.
